Data published in paper PMC4356361, “Three-dimensional structures of Plasmodium falciparum spermidine synthase with bound inhibitors suggest new strategies for drug design” (Acta Crystallographica Section D: Biological Crystallography, 2015).

Target: the molecule itself
Experiment: crystal structure; hanging-drop vapour diffusion at 295 K, 0.1 M MES pH 5.6, 0.1 M ammonium sulfate, 27% PEG 3350; space group C2, three monomers in the asymmetric unit; protein pre-incubated with small-molecule ligands

B1: Plasmodium falciparum spermidine synthase, 39-residue N-terminally truncated construct (enzyme, UniProt Q8II73 40-321, looked up)
chain: SKKWFSEFSIMWPGQAFSLKIKKILYETKSKYQNVLVFESTTYGKVLVLDGVIQLTEKDEFAYHEMMTHVPMTVSKEPKNVLVVGGGDGGIIRELCKYKSVENIDICEIDETVIEVSKIYFKNISCGYEDKRVNVFIEDASKFLENVTNTYDVIIVDSSDPIGPAETLFNQNFYEKIYNALKPNGYCVAQCESLWIHVGTIKNMIGYAKKLFKKVEYANISIPTYPCGCIGILCCSKTDTGLTKPNKKLESKEFADLKYYNYENHSAAFKLPAFLLKEIENI
notes: Spermidine synthase of Plasmodium falciparum, construct lacking the first 39 N-terminal residues, in the p15-Tev-LIC vector, as described in Dufe et al. (2007); The crystals also held small-molecule ligands (MTA, dcAdoMet, putrescine, spermidine, 4MAN, 4AMA, BIPA); also called PfSpdS; SpdS; source: His-tag removed with TEV protease; not shown: His6, N-terminal, cleaved
B1: binds.
